{"source": "patent US20030186377", "test_system": "T-bet protein (modified forms used as substrates in in vitro kinase assays)", "data": [{"substance": "ITK", "values": [{"measurement": "phosphorylation in in vitro kinase assay", "result": "Both the ITK and Rlk/txk kinases have been found to phosphorylate T-bet in vitro."}]}, {"substance": "Rlk/Txk", "values": [{"measurement": "phosphorylation in in vitro kinase assay", "result": "Both the ITK and Rlk/txk kinases have been found to phosphorylate T-bet in vitro."}]}]}
